According to patent US20130315910A1 (Xencor, published 2013):

Legend:
[1] = molecular target: T1, human FcγRIIb on cells (transfected HEK293T cells; primary human B cells) (human, UniProt P31994 43-310); assay: flow cytometry on FcγRIIb-transfected 293T cells [top left panel]
T1 construct: whole, on cells; also called CD32b
T1 sequence (looked up): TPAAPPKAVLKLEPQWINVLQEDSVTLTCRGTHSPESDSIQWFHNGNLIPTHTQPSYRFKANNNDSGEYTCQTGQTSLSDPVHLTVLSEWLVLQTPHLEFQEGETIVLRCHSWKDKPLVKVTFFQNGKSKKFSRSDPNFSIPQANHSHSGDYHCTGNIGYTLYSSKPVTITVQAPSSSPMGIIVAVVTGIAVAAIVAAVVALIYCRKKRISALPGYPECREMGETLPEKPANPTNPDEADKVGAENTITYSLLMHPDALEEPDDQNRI
Method: (§1) In order to validate the Biacore data and evaluate receptor binding of the variants on the cell surface, binding of select antibodies to cells expressing FcγRIIb was measured. […] HEK293T cells in DMEM with 10% FBS were transfected with human FcγRIIb cDNA in pCMV6 expression vector (Origene Technologies, Rockville, Md.), cultured for 3 days, harvested, washed twice in PBS, resuspended in PBS with 0.1% BSA (PBS/BSA), and aliquoted at 2×10^5 cells per well into 96-well microtiter plates. Fc variant antibodies were serially diluted in PBS/BSA then added to the cells and incubated with mixing for 1 h at room temperature. After extensive washing with PBS/BSA, phycoerythrin (PE)-labeled anti-human-Fab-specific goat F(ab′)2 fragment was added for detection. Cells were incubated for 30 min at room temperature, washed, and resuspended in PBS/BSA. Binding was evaluated using a FACSCanto II flow cytometer (BD Biosciences, San Jose, Calif.), and the mean fluorescence intensity (MFI) was plotted as a function of antibody concentration using Graph Pad Prism software (GraphPad Software, San Diego, Calif.) from which half-maximal binding (EC50) values were determined by sigmoidal dose response modeling.

[2] = molecular target: T2, human FcγRIIb receptor protein (R&D Systems) (human, UniProt P31994 46-217); assay: Biacore SPR, Kd(native IgG1)/Kd(variant)
T2 construct: Bought protein injected over captured antibody in Biacore; also called CD32b
T2 sequence (looked up): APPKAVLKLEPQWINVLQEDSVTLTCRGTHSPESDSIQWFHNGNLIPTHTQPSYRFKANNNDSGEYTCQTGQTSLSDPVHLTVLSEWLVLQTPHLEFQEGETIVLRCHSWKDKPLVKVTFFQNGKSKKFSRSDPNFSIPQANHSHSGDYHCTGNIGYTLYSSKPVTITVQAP

[3] = molecular target: T1, human FcγRIIb on cells (transfected …); assay: flow cytometry on FcγRIIb-transfected 293T cells [bottom right panel]
Method: as §1

[4] = molecular target: T1, human FcγRIIb on cells (transfected …); assay: flow cytometry on FcγRIIb-transfected 293T cells [middle left panel]
Method: as §1

[5] = molecular target: T3, human FcγRIIIa (158V), His- and GST-tagged (human, UniProt P08637 17-208); assay: SPR
T3 construct: also called V158 FcγRIIIa; VIIIa; not shown: 6xHis and GST tags of the pTT5 vector
T3 sequence (P08637 17-208 F176V): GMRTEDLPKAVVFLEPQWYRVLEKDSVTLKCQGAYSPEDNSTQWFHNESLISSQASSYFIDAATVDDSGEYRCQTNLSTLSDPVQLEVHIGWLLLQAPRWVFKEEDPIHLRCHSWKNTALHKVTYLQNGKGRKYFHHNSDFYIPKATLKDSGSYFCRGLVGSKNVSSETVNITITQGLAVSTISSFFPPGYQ

[6] = molecular target: T4, human FcγRI receptor protein (R&D Systems) (human, UniProt P12314 16-288); assay: SPR
T4 construct: also called soluble FcγRI; solFcγRI
T4 sequence (P12314 16-288 limits assumed): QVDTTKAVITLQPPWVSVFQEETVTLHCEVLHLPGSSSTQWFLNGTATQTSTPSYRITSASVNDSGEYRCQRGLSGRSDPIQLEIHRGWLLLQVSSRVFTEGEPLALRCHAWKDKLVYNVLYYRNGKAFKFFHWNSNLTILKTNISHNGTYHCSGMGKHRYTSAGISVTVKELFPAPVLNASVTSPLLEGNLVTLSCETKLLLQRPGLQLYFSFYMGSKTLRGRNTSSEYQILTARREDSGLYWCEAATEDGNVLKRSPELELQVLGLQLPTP

[7] = molecular target: T5, human FcγRIIa (131R), His- and GST-tagged (human, UniProt P12318 34-217); assay: SPR
T5 construct: Expressed in HEK293T cells, purified by nickel chromatography; also called R131 FcγRIIa; not shown: 6xHis and GST tags of the pTT5 vector
T5 sequence (looked up): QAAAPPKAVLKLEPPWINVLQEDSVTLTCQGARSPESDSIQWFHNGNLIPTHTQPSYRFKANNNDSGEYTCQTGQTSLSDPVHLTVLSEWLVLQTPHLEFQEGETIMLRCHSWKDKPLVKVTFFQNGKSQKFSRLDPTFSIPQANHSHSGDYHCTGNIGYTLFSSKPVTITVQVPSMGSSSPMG

[8] = molecular target: T6, human FcγRIIa (131H), His- and GST-tagged (human, UniProt P12318 34-217); assay: SPR
T6 construct: also called H131 FcγRIIa; HIIa; not shown: 6xHis and GST tags of the pTT5 vector
T6 sequence (looked up): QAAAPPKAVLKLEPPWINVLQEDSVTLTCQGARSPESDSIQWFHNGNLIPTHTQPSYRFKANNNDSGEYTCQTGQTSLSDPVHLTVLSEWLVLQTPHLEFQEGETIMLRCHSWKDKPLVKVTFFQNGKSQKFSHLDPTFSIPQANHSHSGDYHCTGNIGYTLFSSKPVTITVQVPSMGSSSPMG

[9] = molecular target: T1, human FcγRIIb on cells (transfected …); assay: flow cytometry on FcγRIIb-transfected 293T cells [middle right panel]
Method: as §1

[10] = molecular target: T2, human FcγRIIb receptor protein (R&D …); assay: Biacore SPR, antibody captured on protein A/G chip, FcγR injected

EC50 (read off the curve) [1]: ~0.01 µg/mL
fold affinity relative to native IgG1 [2]: 20.4 fold
EC50 (read off the curve) [3]: ~0.02 µg/mL
EC50 (read off the curve) [4]: ~0.03 µg/mL
Fold vs WT IgG1 [5]: 0.381 fold
Kd [5]: 503 nM
Fold vs WT IgG1 [6]: 2.81 fold
Kd [6]: 0.117 nM
Fold vs WT IgG1 [7]: 29.5 fold
Kd [7]: 29.1 nM
Fold vs WT IgG1 [8]: 0.753 fold
Kd [8]: 859 nM
EC50 (read off the curve) [9]: ~0.03 µg/mL
Kd [10]: 71.9 nM
B1: anti-CD19 antibody HuAM4G7 IgG1 S267E (antibody)
heavy: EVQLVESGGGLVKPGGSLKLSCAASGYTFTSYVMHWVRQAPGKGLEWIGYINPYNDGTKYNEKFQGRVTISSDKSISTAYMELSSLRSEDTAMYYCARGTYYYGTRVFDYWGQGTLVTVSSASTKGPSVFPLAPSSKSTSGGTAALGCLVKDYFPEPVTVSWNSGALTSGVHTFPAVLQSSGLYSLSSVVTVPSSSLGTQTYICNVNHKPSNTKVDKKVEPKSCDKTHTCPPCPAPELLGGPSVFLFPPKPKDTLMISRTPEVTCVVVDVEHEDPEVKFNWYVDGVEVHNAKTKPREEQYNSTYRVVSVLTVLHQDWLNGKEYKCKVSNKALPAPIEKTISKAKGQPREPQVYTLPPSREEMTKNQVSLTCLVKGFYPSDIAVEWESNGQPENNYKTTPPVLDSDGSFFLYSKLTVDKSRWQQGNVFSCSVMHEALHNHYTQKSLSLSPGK
light: DIVMTQSPATLSLSPGERATLSCRSSKSLQNVNGNTYLYWFQQKPGQSPQLLIYRMSNLNSGVPDRFSGSGSGTEFTLTISSLEPEDFAVYYCMQHLEYPITFGAGTKLEIKRTVAAPSVFIFPPSDEQLKSGTASVVCLLNNFYPREAKVQWKVDNALQSGNSQESVTEQDSKDSTYSLSSTLTLSKADYEKHKVYACEVTHQGLSSPVTKSFNRGEC
notes: Positions in EU numbering; copies: 2 + 2
